# From patent US20250115669A1, “FGFR1/KLB Targeting Agonistic Antigen-Binding Proteins and Conjugates Thereof with GLP-1R Agonistic Peptides” (SANOFI, priority 2020, published 2025)
# Experiments:
# [1] = molecular target: T1, FGFR1c and co-receptor beta-Klotho (KLB) (Homo sapiens, UniProt P11362+Q86Z14); test: Luciferase reporter gene assay (iLite FGF21 Assay Ready Cells), FGF21-like signaling; format: cell-based
# T1 construct: host or cells: iLite FGF21 Assay Ready Cells (HEK293)
# [2] = In vivo PK in cynomolgus monkeys, single intravenous dose; design: species or system Cynomolgus monkey (Macaca fascicularis); conditions: Macaca fascicularis, plasma
# Protocol: Naive cynomolgus monkeys received a single intravenous dose of mAb according to the following table:
# In all investigations, the animals were evaluated twice daily for post-dose mortality/moribundity and cage side clinical observations were carried out after each study blood collection time. Studies were Non-GLP, nevertheless, these studies have been conducted in a GLP compliant facility using practices detailed in Standard Operating Procedures consistent with the principles of GLP (Test facility: Sanofi and Charles River Laboratories). Plasma concentrations and pharmacokinetic parameters of the tested antibodies were investigated after single intravenous administration.
# [3] = NHP study of Ab0335 (SAR18) versus 16H7 (SAR16) in high-fat diet-induced obese cynomolgus monkeys; format: in vivo, Cynomolgus monkey (Macaca fascicularis); conditions: for body weight compared to baseline values (value prior start of treatment) / food intake: obese cynomolgus monkeys; for body weight (in words): SAR16 1 mg/kg, SAR18 low- and high-dose; for food intake: especially lunch (apple), lesser impact on dinner (HFD); for plasma triglyceride (TG) values: over the whole study period
# Protocol: Both were tested as single administration in the most relevant animal model that reflects the intended human population. Monkeys are a desirable species to examine the potential effects of drug candidates because of the similarity of their absorption, distribution, metabolism, and excretion profile compared to that of humans. The cynomolgus monkey is selected as the test species of choice over other lower mammalian species for more meaningful and translatable results because it is closely related to humans, both phylogenetically and physiologically. Thus, the pharmacokinetic and pharmacodynamics of varying doses of the compounds were explored in the high-fat diet-induced obese and insulin resistance cynomolgus monkey model.
# Cynomolgus monkey (Macaca fascicularis) was selected as the test species of choice for more meaningful results that were translatable to humans. More than 50 male monkeys were trained to identify 40 HFD induced obese monkeys for the study.
# They all fulfilled the following metabolic criteria: • weight at least 8 kg, age at least 8 years, fasting insulin >55 μU/mL (in comparison lean monkeys of same age range: weight 5 to 8 kg, fasting glucose ˜70 mg/dL, and fasting insulin ˜[…]), HbA1c >4%, triglycerides >1.3 mmol/L, LDL >5 mmol/L.
# The monkeys were individually housed in species- and size appropriate metabolic stainless-steel caging with ad libitum access to water and under controlled environmental conditions with room temperature of 18° C. to 29° C., relative humidity of 30% to 70%, and a minimum of 10 air changes per hour. A time-controlled lighting system provided a regular 12-hour light/12-hour dark diurnal cycle. Cages were cleaned at regular intervals. The monkeys had three meals per day with a daily energy intake of ˜680 kcal (˜2.85 MJ). All food was withdrawn at 5:00 PM so that monkeys were fasted overnight. Monkeys were provided with enrichment toys or devices at all times. […] Each batch of monkey chow was delivered with an accompanying certificate of analysis detailing nutritional composition and levels of specified contaminants (e.g., heavy metals, aflatoxin, and insecticides). Ad libitum access to water through the main system was suspended on days in which water intake was quantified.
# There was a run-in period during which monkeys were injected subcutaneously with vehicle once weekly. Food intake (calculated as TEI) and water intake were measured daily along with once-weekly body weight evaluation and one-time baseline value determination for metabolic biomarkers, safety biomarkers, IV glucose tolerance test (IVGTT), and profile for glucose, insulin, and plasma lipids.
# For the dosing period 40 trained monkeys (n=10 per group) were selected and stratified for their body weight, fat composition and triglycerides in a four-arm design. All treatments, including a vehicle treated control group were administered subcutaneously on days +1, +19 and +37 and monitored closely for 8 weeks followed by a 4-week observation wash-out period. The dosing period was designed as a four-arm study, and monkeys were treated with either vehicle, SAR16, or SAR18.
# The SAR16-treated monkeys were dosed at 1 mg/kg on day +1, day +19, and day +37. The SAR18-treated monkeys were dosed in the low-dose arm at 1 mg/kg on day +1, day +19, and day +37. SAR18 was further dosed in the high-dose arm at 3 mg/kg on day +1, day +19, and day +37.
# Other parameters were also measured during the study, including food intake, body fat, plasma ketone bodies, as well as, on blood glucose control (glucose profile, fed, fasting plasma glucose and during ivGTT). One group received the vehicle. The compounds were administered subcutaneously (SC) (12 weeks “evaluation phase” plus run-out) to obese male cynomolgus macaques (Macaca fascicularis).
# The SAR16-treated monkeys were dosed 3 times on day +1, day +19, and day +37 at 1 mg/kg. […]
# [4] = Size-exclusion chromatography (SEC); format: physicochemical
# Protocol: Analytical SEC was performed using a BioSECcurity instrument (PSS Polymer) with an AdvanceBio 300 column (4.6 mm×300 mm) and AdvanceBio 300 guard column (Agilent Technologies) at room temperature. The analysis was run at a flow rate of 0.5 mL/min using 2× concentrated D-PBS buffer (Thermo Fisher Scientific) with detection at 280 nm. 10 μL of protein sample (at 1 mg/mL) were applied onto the column. Data evaluation was performed using WinGPC software v8.1 (PSS Polymer). For estimation of the molecular weight, the SEC column was calibrated with the AdvanceBio SEC 300 Å Protein Standard (Agilent Technologies).
# [5] = Hydrophobic interaction chromatography (HIC); format: physicochemical
# Protocol: The analysis was run at a flow rate of 1 mL/min with detection at 280 nm. 5 μg of undiluted protein sample were applied onto the column. Gradient elution was from 15% B to 85% B in 7 min followed by 1 min to 100% B, then 1 min to 15% B and then 3 minutes equilibration at 15% B. Buffer A was composed of 1.5 mol/L ammonium sulfate, 25 mmol/L sodium phosphate pH 7.0. Buffer B was composed of 25 mmol/L sodium phosphate pH 7.0. Data evaluation was performed either using LabSolutions software v5.85 (Shimadzu) or Chromeleon 7 software (Thermo Fisher Scientific).
# T1 sequence (Q86Z14 53-1044 limits assumed): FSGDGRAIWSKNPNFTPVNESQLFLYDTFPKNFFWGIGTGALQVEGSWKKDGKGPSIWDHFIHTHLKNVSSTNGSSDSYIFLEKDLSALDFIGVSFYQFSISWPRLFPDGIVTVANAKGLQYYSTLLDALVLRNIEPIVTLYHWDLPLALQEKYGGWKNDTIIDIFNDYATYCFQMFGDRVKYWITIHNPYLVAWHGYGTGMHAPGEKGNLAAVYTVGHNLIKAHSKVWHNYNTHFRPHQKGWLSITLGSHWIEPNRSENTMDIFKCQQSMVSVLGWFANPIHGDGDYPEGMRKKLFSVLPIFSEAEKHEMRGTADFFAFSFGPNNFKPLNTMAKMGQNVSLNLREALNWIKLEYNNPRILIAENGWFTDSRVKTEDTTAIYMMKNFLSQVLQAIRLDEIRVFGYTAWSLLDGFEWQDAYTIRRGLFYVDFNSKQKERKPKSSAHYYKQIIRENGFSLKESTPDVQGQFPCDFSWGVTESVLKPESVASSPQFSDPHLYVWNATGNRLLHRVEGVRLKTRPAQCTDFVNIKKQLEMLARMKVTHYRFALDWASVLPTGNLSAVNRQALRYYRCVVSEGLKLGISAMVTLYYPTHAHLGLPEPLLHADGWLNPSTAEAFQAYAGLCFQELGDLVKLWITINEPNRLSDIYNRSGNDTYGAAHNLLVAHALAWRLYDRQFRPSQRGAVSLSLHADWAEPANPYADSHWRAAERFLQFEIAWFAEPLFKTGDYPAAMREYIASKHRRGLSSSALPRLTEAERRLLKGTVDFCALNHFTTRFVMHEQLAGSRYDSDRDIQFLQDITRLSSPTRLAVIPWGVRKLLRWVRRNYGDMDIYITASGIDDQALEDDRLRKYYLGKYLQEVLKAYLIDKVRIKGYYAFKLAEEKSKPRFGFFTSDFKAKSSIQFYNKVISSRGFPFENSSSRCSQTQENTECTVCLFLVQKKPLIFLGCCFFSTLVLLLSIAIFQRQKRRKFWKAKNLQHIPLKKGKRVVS
# T1 sequence (P11362 22-820 isoform P11362-2 limits assumed): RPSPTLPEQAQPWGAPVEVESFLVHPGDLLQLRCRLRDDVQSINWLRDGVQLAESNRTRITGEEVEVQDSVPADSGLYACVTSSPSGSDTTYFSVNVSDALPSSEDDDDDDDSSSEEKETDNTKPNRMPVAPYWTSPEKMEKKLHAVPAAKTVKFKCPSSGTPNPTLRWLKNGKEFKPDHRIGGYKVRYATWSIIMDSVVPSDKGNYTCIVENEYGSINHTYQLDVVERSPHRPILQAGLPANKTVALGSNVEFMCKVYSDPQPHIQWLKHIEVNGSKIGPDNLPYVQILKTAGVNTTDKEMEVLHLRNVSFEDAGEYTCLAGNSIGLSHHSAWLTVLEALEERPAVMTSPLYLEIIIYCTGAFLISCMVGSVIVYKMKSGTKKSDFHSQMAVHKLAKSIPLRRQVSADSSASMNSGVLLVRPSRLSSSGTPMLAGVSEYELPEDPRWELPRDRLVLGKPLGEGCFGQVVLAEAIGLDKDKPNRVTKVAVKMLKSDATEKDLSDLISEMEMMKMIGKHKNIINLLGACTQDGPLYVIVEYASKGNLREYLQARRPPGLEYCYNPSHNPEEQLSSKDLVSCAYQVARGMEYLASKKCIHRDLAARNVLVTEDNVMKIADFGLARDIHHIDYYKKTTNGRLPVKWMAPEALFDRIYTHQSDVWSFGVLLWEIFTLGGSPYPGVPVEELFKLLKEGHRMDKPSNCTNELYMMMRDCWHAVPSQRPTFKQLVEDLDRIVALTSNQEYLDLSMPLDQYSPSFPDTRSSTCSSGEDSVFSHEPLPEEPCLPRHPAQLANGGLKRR
cellular activity in the Luciferase gene reporter assay compared to 16H7 [1],Substance,"body weight compared to baseline values (value prior start of treatment) ([3]; 1 mg/kg SC on day +1, +19, +37)",body weight (in words) [3],food intake [3],plasma triglyceride (TG) values [3],"SEC % HMW ([4]; pH 5, 40° C., d 21)","SEC % LMW ([4]; pH 5, 40° C., d 21)","SEC % HMW ([4]; pH 5, d 0)","SEC % LMW ([4]; pH 5, d 0)","SEC % HMW ([4]; pH 6, 40° C., d 21)","SEC % LMW ([4]; pH 6, 40° C., d 21)","SEC % HMW ([4]; pH 6, d 0)","SEC % LMW ([4]; pH 6, d 0)","SEC % HMW ([4]; pH 8, 40° C., d 21)","SEC % LMW ([4]; pH 8, 40° C., d 21)","SEC % HMW ([4]; pH 8, d 0)","SEC % LMW ([4]; pH 8, d 0)",Hydrophobic variance HIC Number of peaks [5],"HIC Number of peaks ([5]; pH 5, 40° C., d 21)","HIC Number of peaks ([5]; pH 5, d 0)",also measured
–,"16H7: anti FGFR1c/KLB monoclonal antibody of WO 2011/071783, IgG2 backbone; HC SEQ ID NO: 1, LC SEQ ID NO: 2 [Ab 16H7]",86.5±1.6%,Significant reductions in body weight,Reduction of food intake,quite robustly reduced,–,–,–,–,–,–,–,–,–,–,–,–,–,–,–,FGF21-like activity in Luciferase gene reporter assay (in words) ([1]; monovalent Fab versus bivalent antibody): shows FGF21-like activity; t½ ([2]; 0.1 mg/kg single IV): 6.04 days; t½ ([2]; 0.3 mg/kg single IV): 6.29 days; t½ ([2]; 1.0 mg/kg single IV): 11.2 days
comparable cellular activity,"Ab0331: IgG4 PE; 16H7 VL (N25S, D49S, D50E, D91E, N93E); 16H7 VH (M34V, I83T, D109E); HC SEQ ID NO: 38, LC SEQ ID NO: 45",–,–,–,–,1%,0%,1%,0%,0%,0%,1%,0%,1%,1%,2%,0%,1,1,1,"HIC Number of peaks ([5]; pH 6, 40° C., d 21): 1; HIC Number of peaks ([5]; pH 6, d 0): 1; HIC Number of peaks ([5]; pH 8, 40° C., d 21): 1; HIC Number of peaks ([5]; pH 8, d 0): 1; t½ ([2]; 3.0 mg/kg single IV): 10.8 days"
comparable cellular activity,"Ab0335: IgG4 PE; 16H7 VL (N25S, D49S, D50A, D91E, N93E); 16H7 VH (M34V, I83T, D109E); HC SEQ ID NO: 39, LC SEQ ID NO: 46",94.5±1.8%,Significant reductions in body weight,Reduction of food intake,quite robustly reduced,0%,0%,1%,0%,0%,0%,1%,0%,5%,1%,2%,0%,1,1,1,"HIC Number of peaks ([5]; pH 6, 40° C., d 21): 1; HIC Number of peaks ([5]; pH 6, d 0): 1; HIC Number of peaks ([5]; pH 8, 40° C., d 21): 1; HIC Number of peaks ([5]; pH 8, d 0): 1; t½ ([2]; 3.0 mg/kg single IV): 12.8 days; body weight compared to baseline values (value prior start of treatment) ([3]; 3 mg/kg SC (high dose) on day +1, +19, +37): 89.9±1.7%"
